Common to all, as to conditions: protein: recombinant; tags: none; blunt
The target in data set [1] is T1, AFV1p06 (ORF59a) (Acidianus filamentous virus 1? (AFV1, …, UniProt Q70LE5 1-59)).
T1 sequence: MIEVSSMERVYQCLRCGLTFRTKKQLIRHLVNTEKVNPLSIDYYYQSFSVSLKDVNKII
The data set is described as follows: competition; vs labelled dsGCcomb 75 nM, 0.5 uM protein; 50 mM HEPES pH 7.4, 10 uM ZnCl2, 150 mM NaCl, 5% glycerol, 0.02% Tween, 3 mM DTT, 50 ng/uL salmon sperm DNA, 15 min at 48 C; 6% native PAGE in TBE.

Data set [2] deals with T1, AFV1p06 (ORF59a). The data set is described as follows: competition; vs labelled dsATcomb 75 nM, 0.5 uM protein; 50 mM HEPES pH 7.4, 10 uM ZnCl2, 150 mM NaCl, 5% glycerol, 0.02% Tween, 3 mM DTT, 50 ng/uL salmon sperm DNA, 15 min at 48 C; 6% native PAGE in TBE.
In data set [3] the target is T1, AFV1p06 (ORF59a). Briefly: EMSA; 10 uM ZnCl2, 50 ng/uL salmon sperm DNA, 75 nM probe, 0-2 uM protein; 50 mM HEPES pH 7.4, 10 uM ZnCl2, 150 mM NaCl, 5% glycerol, 0.02% Tween, 3 mM DTT, 50 ng/uL salmon sperm DNA, 15 min at 48 C; 6% native PAGE in TBE.

For two molecules, binding signal results are on record in article PMC3541406, “Solution Structure of an Archaeal DNA Binding Protein with an Eukaryotic Zinc Finger Fold”.

B1: dsATcomb (dsDNA)
DNA 1: AATGATTCTAAGTATCTTAGAAACA
DNA 2: TGTTTCTAAGATACTTAGAATCATT
Regarding B1, the binding signal with AFV1p06 (ORF59a) [1] is ~5 molar ratio of cold dsATcomb to hot dsGCcomb for similar displacement.

B2: dsGCcomb (dsDNA)
DNA 1: AGGGTGGCAGCGTCGGAGCCTCGCA
DNA 2: TGCGAGGCTCCGACGCTGCCACCCT
On to B2, for which the binding signal was ~0.5 molar ratio of cold dsGCcomb to hot dsATcomb giving clear signal decrease in the data set with AFV1p06 (ORF59a) [2] and ≥ 2 fold more efficient than dsATcomb with AFV1p06 (ORF59a) [3].
